The source of these data is doi:10.1101/144295, “Human PRDM9 can bind and activate promoters, and other zinc-finger proteins associate with reduced recombination in cis” (bioRxiv, 2017).

This data set concerns the molecule itself. Kind of data set: co-IP; competitive co-IP: HEK293T transfected with equimolar DNA of three constructs (one bait with one tag, Human and Chimp prey with the other tag); IP against the bait's tag, western blot against the prey's tag; replicated with reversed tags.

B1: full-length human PRDM9 (B allele), C-terminally tagged with HA or V5 (natural protein)
chain: not shown
notes: 218 synonymous base changes in the zinc finger exon; An HA and a V5 version were made; The C-terminal cassette is linker-TwinStrep-linker-HA/V5-linker-P2A followed by YFP; vector pLENTI CMV/TO Puro DEST (Addgene plasmid # 17293); YFP probably separates at the P2A site (surmised); also called Human-HA; Human-V5; source: HEK293T, transfected (FuGENE-HD), in lysate; not shown: HA or V5, C-terminal, …
Turning to B1, the “fold more efficiently co-precipitated than the Chimp prey (Human bait)” value is over 2 fold.
